Experiments:
[1] = target: SARS-CoV-2 S ectodomain (residues 1-1214) with prefusion stabilizing 986P, 987P variants, C-terminal (SARS-CoV-2) (UniProt P0DTC2); assay: SEC
[2] = target: SARS-CoV-2 prefusion-stabilized spike protein ectodomain (aa 16-1208), expressed in Drosophila S2 cells (SARS-CoV-2) (UniProt P0DTC2); assay: SEC

Substance	stoichiometry N [1]	stoichiometry N [2]
SARS-CoV-2 S ectodomain (residues 1-1214) with prefusion stabilizing 986P, 987P variants, C-terminal (from UniProt P0DTC2 14-1214) (domain or fragment)	3	
SARS-CoV-2 prefusion-stabilized spike protein ectodomain (aa 16-1208), expressed in Drosophila S2 cells (from UniProt P0DTC2 16-1208) (domain or fragment)		2

From article PMC8064498
